From article PMC8822698, “Structural and biological insights into Klebsiella pneumoniae surface polysaccharide degradation by a bacteriophage K1 lyase: implications for clinical use” (Journal of Biomedical Science, 2022)

Target: the molecule itself
Assay: AUC; sedimentation at 20 °C and 20,000 rpm; 25 mM Tris-HCl, 100 mM NaCl, pH 7.5; data analysed with SEDFIT

B1: K1 CPS-specific depolymerase K1 lyase of bacteriophage NTUH-K2044-K1-1 (enzyme, UniProt A0A068Q5Q5 1-651, looked up)
chain: MALIRLVAPERVFSDLASMVAYPNFQVQDKITLLGSAGGDFTFTTTASVVDNGTVFAVPGGYLLRKFVGPAYSSWFSNWTGIVTFMSAPNRHLVVDTVLQATSVLNIKSNSTLEFTDTGRILPDAAVARQVLNITGSAPSVFVPLAADAAAGSKVITVAAGALSAVKGTYLYLRSNKLCDGGPNTYGVKISQIRKVVGVSTSGGVTSIRLDKALHYNYYLSDAAEVGIPTMVENVTLVSPYINEFGYDDLNRFFTSGISANFAADLHIQDGVIIGNKRPGASDIEGRSAIKFNNCVDSTVKGTCFYNIGWYGVEVLGCSEDTEVHDIHAMDVRHAISLNWQSTADGDKWGEPIEFLGVNCEAYSTTQAGFDTHDIGKRVKFVRCVSYDSADDGFQARTNGVEYLNCRAYRAAMDGFASNTGVAFPIYRECLAYDNVRSGFNCSYGGGYVYDCEAHGSQNGVRINGGRVKGGRYTRNSSSHIFVTKDVAETAQTSLEIDGVSMRYDGTGRAVYFHGTVGIDPTLVSMSNNDMTGHGLFWALLSGYTVQPTPPRMSRNLLDDTGIRGVATLVAGEATVNARVRGNFGSVANSFKWVSEVKLTRLTFPSSAGALTVTSVAQNQDVPTPNPDLNSFVIRSSNAADVSQVAWEVYL
notes: K1 CPS-specific depolymerase (K1 lyase) encoded by orf34 of bacteriophage NTUH-K2044-K1-1, GenBank BAP15746, amino acids 1-651; Cloned into pET28a via NdeI and XhoI; This cloning would likely give an N-terminal His6 tag, but that is a surmise; also called K1 CPS depolymerase; polysaccharide depolymerase (PDP); source: E. coli BL21 (DE3), purified (nickel-chelating Sepharose, Superdex-200 gel …)
- stoichiometry N: 3
